Laboratory results reported in article PMC3495168 (Biology of the cell / under the auspices of the European …, 2011).

Target: GST-fused full length CIN85 (human, UniProt Q96B97-1 1-665)
Experiment: pull-down

Sequence of GST-fused full length CIN85 (Q96B97 whole entry, the tested form may be a part): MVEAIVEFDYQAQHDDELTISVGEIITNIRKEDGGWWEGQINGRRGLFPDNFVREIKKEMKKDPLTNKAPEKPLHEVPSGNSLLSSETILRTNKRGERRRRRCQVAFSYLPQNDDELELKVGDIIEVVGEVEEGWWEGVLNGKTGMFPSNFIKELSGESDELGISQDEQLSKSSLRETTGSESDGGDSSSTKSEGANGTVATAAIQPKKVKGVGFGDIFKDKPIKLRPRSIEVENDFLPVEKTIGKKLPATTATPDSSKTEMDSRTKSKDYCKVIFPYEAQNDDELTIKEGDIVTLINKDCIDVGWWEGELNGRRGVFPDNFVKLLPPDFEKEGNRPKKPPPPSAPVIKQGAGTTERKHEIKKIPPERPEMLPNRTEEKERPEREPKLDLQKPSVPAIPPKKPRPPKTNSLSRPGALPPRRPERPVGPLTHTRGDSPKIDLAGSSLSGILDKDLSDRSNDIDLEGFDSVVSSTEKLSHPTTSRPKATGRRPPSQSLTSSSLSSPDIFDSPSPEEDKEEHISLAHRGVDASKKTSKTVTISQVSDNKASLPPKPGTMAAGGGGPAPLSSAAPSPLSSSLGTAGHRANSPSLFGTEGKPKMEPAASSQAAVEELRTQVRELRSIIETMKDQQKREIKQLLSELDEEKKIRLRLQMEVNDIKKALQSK

EC50 [nM]	fold more GST-CIN85 required for similar binding than for Flag-ARAP1 [fold]	Binder
5.6 ± 0.9	–	Flag-ARAP1 (natural protein, human, UniProt Q96P48 1-1450, looked up) MAEAGDAALSVAEWLRALHLEQYTGLFEQHGLVWATECQGLSDTRLMDMGMLLPGHRRRILAGLLRAHTSPAPAPRPTPRPVPMKRHIFRSPPVPATPPEPLPTTTEDEGLPAAPPIPPRRSCLPPTCFTTPSTAAPDPVLPPLPAKRHLAELSVPPVPPRTGPPRLLVSLPTKEEESLLPSLSSPPQPQSEEPLSTLPQGPPQPPSPPPCPPEIPPKPVRLFPEFDDSDYDEVPEEGPGAPARVMTKKEEPPPSRVPRAVRVASLLSEGEELSGDDQGDEEEDDHAYEGVPNGGWHTSSLSLSLPSTIAAPHPMDGPPGGSTPVTPVIKAGWLDKNPPQGSYIYQKRWVRLDTDHLRYFDSNKDAYSKRFISVACISHVAAIGDQKFEVITNNRTFAFRAESDVERKEWMQALQQAMAEQRARARLSSAYLLGVPGSEQPDRAGSLELRGFKNKLYVAVVGDKVQLYKNLEEYHLGIGITFIDMSVGNVKEVDRRSFDLTTPYRIFSFSADSELEKEQWLEAMQGAIAEALSTSEVAERIWAAAPNRFCADCGAPQPDWASINLCVVICKRCAGEHRGLGAGVSKVRSLKMDRKVWTETLIELFLQLGNGAGNRFWAANVPPSEALQPSSSPSTRRCHLEAKYREGKYRRYHPLFGNQEELDKALCAAVTTTDLAETQALLGCGAGINCFSGDPEAPTPLALAEQAGQTLQMEFLRNNRTTEVPRLDSMKPLEKHYSVVLPTVSHSGFLYKTASAGKLLQDRRAREEFSRRWCVLGDGVLSYFENERAVTPNGEIRASEIVCLAVPPPDTHGFEHTFEVYTEGERLYLFGLESAEQAHEWVKCIAKAFVPPLAEDLLARDFERLGRLPYKAGLSLQRAQEGWFSLSGSELRAVFPEGPCEEPLQLRKLQELSIQGDSENQVLVLVERRRTLYIQGERRLDFMGWLGAIQKAAASMGDTLSEQQLGDSDIPVIVYRCVDYITQCGLTSEGIYRKCGQTSKTQRLLESLRQDARSVHLKEGEQHVDDVSSALKRFLRDLPDGLFTRAQRLTWLEASEIEDEEEKVSRYRELLVRLPPVNRATVKALISHLYCVQCFSDTNQMNVHNLAIVFGPTLFQTDGQDYKAGRVVEDLINHYVVVFSVDEEELRKQREEITAIVKMRVAGTASGTQHAGDFICTVYLEEKKAETEQHIKVPASMTAEELTLEILDRRNVGIREKDYWTCFEVNEREEAERPLHFAEKVLPILHGLGTDSHLVVKKHQAMEAMLLYLASRVGDTKHGMMKFREDRSLLGLGLPSGGFHDRYFILNSSCLRLYKEVRSQRPWSGAPETSHRPEKEWPIKSLKVYLGVKKKLRPPTCWGFTVVHETEKHEKQQWYLCCDTQMELREWFATFLFVQHDGLVWPSEPSRVSRAVPEVRLGSVSLIPLRGSENEMRRSVAAFTADPLSLLRNV
–	8	Flag-[R86/90A]ARAP1 (natural protein, human, UniProt Q96P48 1-1450, looked up) MAEAGDAALSVAEWLRALHLEQYTGLFEQHGLVWATECQGLSDTRLMDMGMLLPGHRRRILAGLLRAHTSPAPAPRPTPRPVPMKAHIFASPPVPATPPEPLPTTTEDEGLPAAPPIPPRRSCLPPTCFTTPSTAAPDPVLPPLPAKRHLAELSVPPVPPRTGPPRLLVSLPTKEEESLLPSLSSPPQPQSEEPLSTLPQGPPQPPSPPPCPPEIPPKPVRLFPEFDDSDYDEVPEEGPGAPARVMTKKEEPPPSRVPRAVRVASLLSEGEELSGDDQGDEEEDDHAYEGVPNGGWHTSSLSLSLPSTIAAPHPMDGPPGGSTPVTPVIKAGWLDKNPPQGSYIYQKRWVRLDTDHLRYFDSNKDAYSKRFISVACISHVAAIGDQKFEVITNNRTFAFRAESDVERKEWMQALQQAMAEQRARARLSSAYLLGVPGSEQPDRAGSLELRGFKNKLYVAVVGDKVQLYKNLEEYHLGIGITFIDMSVGNVKEVDRRSFDLTTPYRIFSFSADSELEKEQWLEAMQGAIAEALSTSEVAERIWAAAPNRFCADCGAPQPDWASINLCVVICKRCAGEHRGLGAGVSKVRSLKMDRKVWTETLIELFLQLGNGAGNRFWAANVPPSEALQPSSSPSTRRCHLEAKYREGKYRRYHPLFGNQEELDKALCAAVTTTDLAETQALLGCGAGINCFSGDPEAPTPLALAEQAGQTLQMEFLRNNRTTEVPRLDSMKPLEKHYSVVLPTVSHSGFLYKTASAGKLLQDRRAREEFSRRWCVLGDGVLSYFENERAVTPNGEIRASEIVCLAVPPPDTHGFEHTFEVYTEGERLYLFGLESAEQAHEWVKCIAKAFVPPLAEDLLARDFERLGRLPYKAGLSLQRAQEGWFSLSGSELRAVFPEGPCEEPLQLRKLQELSIQGDSENQVLVLVERRRTLYIQGERRLDFMGWLGAIQKAAASMGDTLSEQQLGDSDIPVIVYRCVDYITQCGLTSEGIYRKCGQTSKTQRLLESLRQDARSVHLKEGEQHVDDVSSALKRFLRDLPDGLFTRAQRLTWLEASEIEDEEEKVSRYRELLVRLPPVNRATVKALISHLYCVQCFSDTNQMNVHNLAIVFGPTLFQTDGQDYKAGRVVEDLINHYVVVFSVDEEELRKQREEITAIVKMRVAGTASGTQHAGDFICTVYLEEKKAETEQHIKVPASMTAEELTLEILDRRNVGIREKDYWTCFEVNEREEAERPLHFAEKVLPILHGLGTDSHLVVKKHQAMEAMLLYLASRVGDTKHGMMKFREDRSLLGLGLPSGGFHDRYFILNSSCLRLYKEVRSQRPWSGAPETSHRPEKEWPIKSLKVYLGVKKKLRPPTCWGFTVVHETEKHEKQQWYLCCDTQMELREWFATFLFVQHDGLVWPSEPSRVSRAVPEVRLGSVSLIPLRGSENEMRRSVAAFTADPLSLLRNV
